In patent US20180318451A1 (published 2018):
Substitutions are numbered along the chain they refer to.

B1: Anticalin A3A5 (designed binder)
chain: QDSTSDLIPAPPLSKVPLQQNFQDNQFHGKWYVVGLAGNVILREDKDPYKMSATIYELKEDKSYNVTNVRFYLKKCYYTIATFVPGSQPGEFTLGTIKSGPGKTSGLVRVVSTNYNQHAMVFFKEVQQNREWFIITLYGRTKELTSELKENFIRFSKSLGLPENHIVFPVPIDQCIDG
notes: Differs from A3 by Val for Met at position 40; monomeric, 21 kDa; also called variant A3A5; not shown: C-terminal Strep-tag II
B2: Anticalin A3 (designed binder)
chain: B1 chain with V40M
notes: Lcn2-derived lipocalin variant, monomeric, made by periplasmic secretion in E. coli from pNGAL98 with a C-terminal Strep-tag II; also called variant A3; not shown: C-terminal Strep-tag II
B3: Anticalin A3A5.1 (designed binder)
chain: B1 chain with K59N, F71Y, F92Y, K103D, E147K
notes: Soluble form as in SPR; also called variant A3A5.1; not shown: C-terminal Strep-tag II
B4: Anticalin A3A5.7 (designed binder)
chain: B1 chain with K74N, Q88R, N116S, E147K
notes: Soluble form as in SPR; also called variant A3A5.7; not shown: C-terminal Strep-tag II
B5: Anticalin A3A5.8 (designed binder)
chain: B1 chain with F71Y, K74N, K103D
notes: A3A5 with Y at 71, N at 74 and D at 103; also called variant A3A5.8; not shown: C-terminal Strep-tag II
B6: Anticalin A3A5.9 (designed binder)
chain: B1 chain with F71Y, K74N, K103D, E147K
notes: A3A5.8 with K for E at position 147; also called variant A3A5.9; not shown: C-terminal Strep-tag II
B7: Anticalin candidate A2 (designed binder)
chain: QDSTSDLIPAPPLSKVPLQQNFQDNQFHGKWYVVGRAGNKPLREDKDPLKMWATIYELKEDKSYNVTIVWFDFKKCWYRISTFVPGSQPGEFTLGRIKSAPGVTSGLVRVVSTNYNQHAMVFFKYVFQNREWFHITLYGRTKELTSELKENFIRFSKSLGLPENHIVFPVPIDQCIDG
notes: not shown: C-terminal Strep-tag II
B8: Anticalin candidate H5 (designed binder)
chain: QDSTSDLIPAPPLSKVPLQQNFQDNQFHGKWYVVGTAGNWPLREDKDPHKMSATIYELKEDKSYNVTNVQFSSKKCLYFIGTFVPGSQPGEFTLGPIKSAPGQTSGLVRVVSTNYNQHAMVFFKQVIQNREAFIITLYGRTKELTSELKENFIRFSKSLGLPENHIVFPVPIDQCIDG
notes: as for B7

Experiments:
[1] = target: T1, rhPSMA, extracellular part of human PSMA (residues 44-750) with its native N-terminus (human, UniProt Q04609 44-750, N-glycosylated (made in Schneider S2 insect cells)); assay: SPR (BIAcore 2000), rhPSMA on chip
T1 construct: range 44-750; No tag; also called wild-type rhPSMA; rhGCPII
T1 sequence (Q04609 44-750 limits assumed): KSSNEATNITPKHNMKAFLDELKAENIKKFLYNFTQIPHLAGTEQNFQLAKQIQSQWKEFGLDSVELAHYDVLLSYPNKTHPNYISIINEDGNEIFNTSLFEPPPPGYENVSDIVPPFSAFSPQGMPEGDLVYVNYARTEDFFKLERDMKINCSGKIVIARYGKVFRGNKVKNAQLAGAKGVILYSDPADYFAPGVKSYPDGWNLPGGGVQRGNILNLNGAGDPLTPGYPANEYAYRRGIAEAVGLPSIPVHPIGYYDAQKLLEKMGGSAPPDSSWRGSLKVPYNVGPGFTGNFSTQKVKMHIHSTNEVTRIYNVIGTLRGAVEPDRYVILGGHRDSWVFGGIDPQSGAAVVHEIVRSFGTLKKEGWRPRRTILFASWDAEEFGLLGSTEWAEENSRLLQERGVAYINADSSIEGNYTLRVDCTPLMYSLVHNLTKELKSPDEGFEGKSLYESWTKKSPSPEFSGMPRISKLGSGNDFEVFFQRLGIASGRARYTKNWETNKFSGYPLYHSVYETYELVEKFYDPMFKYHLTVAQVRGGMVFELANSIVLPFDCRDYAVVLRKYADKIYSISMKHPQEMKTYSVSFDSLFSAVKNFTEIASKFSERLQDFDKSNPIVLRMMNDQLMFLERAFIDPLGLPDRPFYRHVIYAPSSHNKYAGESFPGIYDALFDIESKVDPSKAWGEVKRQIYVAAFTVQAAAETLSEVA
Description: (§1) Surface plasmon resonance (SPR) spectroscopy was performed on a BIAcore 2000 instrument (BIAcore) following published procedures (Gebauer, M. et al. [2013] J. Mol. Biol. 425:780-802; De Crescenzo, G. et al. [2008] J. Mol. Recognit. 21:256-266). rhPSMA (1 nM in 10 mM Na-acetate pH 5.0) was immobilized on a CM5 sensor chip (BIAcore) using an amine coupling kit (GE Healthcare, BR100050), resulting in around 500 resonance units (ΔRU). The purified Anticalins were diluted in HEPES buffered saline (HBS; 10 mM HEPES/NaOH, 150 mM NaCl, pH 7.4) with 0.005% v/v Tween 20 to concentrations from 64-2 nM. The instrument was operated using the same running buffer at a flow rate of 25 μL/min. […] Regeneration of the sensor chip was achieved by up to four injections of 10 μL glycine/HCl, pH 2.0. The sensorgrams were corrected by double subtraction of the corresponding signals measured for the in-line control blank channel and an averaged baseline determined from three buffer blank injections³¹. Kinetic parameters were determined by data fitting using a 1:1 Langmuir binding model with BIAevaluation software version 4.1 (BIAcore).
To precisely determine kinetic and thermodynamic binding constants of the PSMA-specific Anticalin A3 and its variants, surface plasmon resonance (SPR) real-time analyses was performed on a BIAcore 2000 instrument. […]

[2] = target: T1, rhPSMA, extracellular part of human …; assay: ELISA, rhPSMA coated on MaxiSorp plate, Anticalin dilution series
Description: (§2) FIG. 4: Anticalin affinities towards PSMA as determined by ELISA and BIAcore measurements. Binding activities of Anticalins selected from the original naïve library (A) or resulting from subsequent affinity maturation of the A3 variant (B) were compared in an ELISA. A 96-well MaxiSorp plate was coated with rhPSMA (or ovalbumin as a negative control, not shown) and purified Anticalin variants were applied in dilution series. Anticalin binding was detected using StrepTactin/AP conjugate, followed by chromogenic reaction. Absorption was plotted against the Anticalin concentration and data were analyzed by curve fitting. Binding curves for the best performing clones A3 and A3A5 are shown as solid lines. (C-E) SPR sensograms measured for Anticalins A3, A3A5 and A3A5.1 on a BIAcore 2000 instrument. Approximately 500 RU of rhPSMA was immobilized on a CM5 sensor chip by amine coupling. […]
(§3) 50 μL of rhPSMA (5 μg/mL in TBS) was directly adsorbed onto the surface of a MaxiSorp 96-well plate overnight at 4° C. […] The plates were washed three times and bound Anticalins were detected with StrepTactin-AP as described further above. The data were analyzed using Prism 5 software (GraphPad) and absorption values (A) were fitted according to the formula ΔA=Aₘₐₓ·[Lₜₒₜ]/(KD+[Lₜₒₜ]) with the concentration of the applied lipocalin variant [Lₜₒₜ] and the dissociation constant KD.

[3] = target: T1, rhPSMA, extracellular part of human …; assay: SPR (BIAcore 2000), rhPSMA amine-coupled to CM5 chip, Anticalin as analyte
Description: Anticalin binding was detected using StrepTactin/AP conjugate, followed by chromogenic reaction. Absorption was plotted against the Anticalin concentration and data were analyzed by curve fitting. Binding curves for the best performing clones A3 and A3A5 are shown as solid lines. (C-E) SPR sensograms measured for Anticalins A3, A3A5 and A3A5.1 on a BIAcore 2000 instrument. Approximately 500 RU of rhPSMA was immobilized on a CM5 sensor chip by amine coupling. A dilution series from 64 to 2 nM of the purified Anticalin in HBS was applied and the resulting curves were fitted according to a Langmuir 1:1 binding model. (F) Comparison of parameters from real-time SPR analysis for Anticalins investigated in C-E, together with A3A5.7, in a kₒₙ/koff plot.
as §1
To precisely determine kinetic and thermodynamic binding constants of the PSMA-specific Anticalin A3 and its variants, surface plasmon resonance (SPR) real-time analyses was performed on a BIAcore 2000 instrument. To this end, rhPSMA was chemically coupled to the carboxymethyl dextran matrix of a sensorchip using amine chemistry and a concentrations series of each Anticalin was applied.

[4] = target: T1, rhPSMA, extracellular part of human …; assay: ELISA, rhPSMA coated on MaxiSorp plate, Anticalin dilution series, detection by StrepTactin/AP
Description: as §2, §3

ovalbumin = target: T2, ovalbumin (UniProt P01012 2-386); assay: ELISA, ovalbumin-coated wells
T2 sequence (looked up): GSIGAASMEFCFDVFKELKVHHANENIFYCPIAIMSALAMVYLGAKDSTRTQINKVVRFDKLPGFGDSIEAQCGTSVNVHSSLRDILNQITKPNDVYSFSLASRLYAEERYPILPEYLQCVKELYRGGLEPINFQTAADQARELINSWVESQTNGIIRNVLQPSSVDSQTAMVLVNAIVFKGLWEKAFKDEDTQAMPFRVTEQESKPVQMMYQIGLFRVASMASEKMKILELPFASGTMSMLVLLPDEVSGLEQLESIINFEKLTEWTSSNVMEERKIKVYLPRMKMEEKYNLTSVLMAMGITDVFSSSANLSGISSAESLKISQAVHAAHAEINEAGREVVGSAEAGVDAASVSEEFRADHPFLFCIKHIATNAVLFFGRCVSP
Description: (§4) Enriched lipocalin variants from phage display were subjected to ELISA screening after subcloning of the central BstXI gene cassette on pNGAL98, which also encodes the N-terminal OmpA signal sequence directing the expressed protein into the bacterial periplasm and a C-terminal Strep-tag II for purification (Schmidt, T. G. & Skerra, A. [2007] Nat. Protoc. 2:1528-1535). After transformation of E. coli TG1-F- (Kim, H. J. et al. [2009] J. Am. Chem. Soc. 131:3565-3576) with the ligation mixture, randomly picked colonies were inoculated in a 96-well plate filled with 100 μL of Terrific broth (TB) media supplemented with 100 μg/mL ampicillin per well. Anticalin expression was induced at an optical density of OD₅₅₀=0.3-0.5 by addition of 20 μL TB/Amp containing 1.2 μg/mL anhydrotetracycline (aTc; ACROS Organics, 233131000) overnight at 20° C. The periplasmic extract was prepared as previously described²¹ and applied to 96-well MaxiSorp plates (Nunc, 442404) coated with rhPSMA (5 μg/mL in TBS) and blocked with BSA. Ovalbumin (10 μg/mL in TBS) served as non-related control protein in parallel. After 1 h incubation at room temperature, plates were washed three times with PBS/T and bound lipocalin variants were detected by means of their C-terminal Strep-tag II using StrepTactin conjugated to alkaline phosphatase (IBA, 2-1503-001), diluted 1:5,000 in PBS, for 1 h. Signals were developed by hydrolysis of 0.5 mg/mL p-nitrophenyl phosphate in 0.1 M NaCl, 5 mM MgCl₂, 0.1 M Tris/HCl, pH 8.8, and monitored via absorbance measurement at 405 nm with an Infinite 200 PRO microplate reader (Tecan).
Individual colonies were used for micro-scale expression in a 96-well plate and crude E. coli lysates from these cultures were screened in an ELISA for Anticalins having PSMA-binding activity. To this end, MaxiSorp plates coated with glycosylated rhPSMA were used as a target, whereas ovalbumin-coated wells were used as negative control to assess non-specific binding. Bound Anticalins were detected via the C-terminal Strep-tag II.

[5] = target: T1, rhPSMA, extracellular part of human …; assay: SPR (BIAcore), rhPSMA on chip
Description: as §1, with “(BIAcore). […]” for “(BIAcore).”

[6] = target: T1, rhPSMA, extracellular part of human …; assay: SPR (BIAcore), rhPSMA on chip, Anticalin as analyte
Description: as §1
Several combinations of mutations occurring in the PSMA-specific Lcn2 variants A3A5.1 (carrying 5 new mutations) and A3A5.7 (carrying 4 new mutations) were prepared in order to investigate the relevance of the mutations that were found during affinity maturation for improved PSMA binding with the aim to create a combined Anticalin variant suitable for further protein engineering studies. A first combination, containing solely the mutations located in the loop regions of the Anticalins, was carried out by introducing the following mutations into the sequence of A3A5 (see SEQ ID NO:2): (i) a Y at position 71 as also present in A3A5.1, (ii) an N at position 74 as also present in A3A5.7, (iii) a D at position 103 as also present in A3A5.1. This triple substitution variant, termed A3A5.8, was obtained by gene synthesis, cloned and subsequently expressed (as described in Example 1).

[7] = target: T1, rhPSMA, extracellular part of human …; assay: ELISA, rhPSMA coated on MaxiSorp plate
Description: as §4, with “The periplasmic extract was prepared as previously described²¹ and applied to 96-well MaxiSorp plates (Nunc, 442404) coated with rhPSMA (5 μg/mL in TBS) and blocked with BSA. Ovalbumin (10 μg/mL in TBS) served as non-related control protein in parallel.” left out, “(Tecan). […]” for “(Tecan).”

Binder | Kd [3] [nM] | koff [3] [s⁻¹] | kon [3] [M⁻¹ s⁻¹] | binding result (ovalbumin) | also measured
B1 | 2.5 | 0.00017 | 71000 | – | fold improvement of KD against A3 [1]: 2 fold; Kd [2]: 2.1 nM
B2 | 4.8 | 0.00058 | 120000 | no binding | Kd [2]: 5.8 nM; Kd [4]: 6 nM
B3 | 0.66 | 0.00014 | 210000 | – | –
B4 | 0.54 | 0.00014 | 270000 | – | –
B5 | – | – | – | – | fold improvement of KD against A3A5 [5]: ~2 fold; Kd [6]: 1.4 nM; koff [6]: 0.00015 s⁻¹; kon [6]: 110000 M⁻¹ s⁻¹
B6 | – | – | – | – | Kd [6]: 0.74 nM; koff [6]: 0.00016 s⁻¹; kon [6]: 220000 M⁻¹ s⁻¹
B7 | – | – | – | no binding | binding result [7]: binds
B8 | – | – | – | no binding | binding result [7]: binds
